# According to the nanobody polyreactivity screen of Harvey et al. (2022):
# Assay: yeast display, Sf9 membrane polyspecificity reagent, FACS + sequencing; frameworks hold sequencing errors
# Summary of the method: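 Nanobodies came from a synthetic yeast display library in Saccharomyces cerevisiae BJ5465, induced with galactose for 36–48 hours and stained for 1 hour at 4 °C with 10% biotinylated, detergent-solubilized Sf9 membrane reagent. Cells were enriched on streptavidin microbeads and then FACS-sorted, with low and high (top ~1%) gates set on anti-HA fluorescence for expression and streptavidin fluorescence for reagent binding. Each polyreactivity label reflects the gate a clone came from. Genes were amplified by colony PCR, sequenced by MiSeq 2 × 250 and filtered by CDR length.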
row,Sequence,polyreactivity (PSR sort gate)
1,QVQLVESGGGLVQAGGSLRLSCAASGSTYRDYAKGWYRQAPGKERELVASITSGSSTYYADSLKGRFTMSRDNAKNTVYLQMNSLKPEDTAVYYCATGRQYDLHRLRHDYWGQGTQVTVSS,low polyreactivity
2,QVQLVESGGGLVQAGGSLRLSCAASGSTFWFYAMGWYRPAPGKERELVAVISNSGSTYYADSVKGRFTISRDNAKNTVYLQMNSLQPEDTAVYYCNKDGGGDSYWYDYWGQGTQVTVSS,low polyreactivity
3,QVQLVESGGGLVQAGGSLRLSCAASGSTFYSYAMGWYRQAPGKERELVAAITTSGGSTYYADSVKGRFTISRDNAKNTVYLQMNSLKPEDTAVYYCAAYDLYWYEYWGQGTQVTVSS,low polyreactivity
4,QVQLVESGGGLVQAGGSLRLSCAASGIIFRSYAMGWYRQAPGKERELVASITSGGSTNYADSVKGRFTNSRDNAKNTVYLQMNSLKPEDTAVYYCAADYYYTSFGGYDYWGQGTQVTVSS,high polyreactivity
5,QVQLVESGGGLVQAGGTLRLSCSASGSIFGIYAMGGYRHAPGKESELVAAITSGGSTYADSVKGRFTISRDNAKNTVYLQMNSLKPVDTAVYFCAAYGRDIGGYDYWGQGSQVTVSS,low polyreactivity
6,QVQLVESGGGLVQAGGSLRLSCAASGFTFANYVMGWSRQAPGKERELVAAITTPGGSTSYADSVKGRFTISRDNAKNTVYLQMNSLKPEDTAVYYCNKTTYYPSDYDYWGQGTQETVSS,low polyreactivity
7,QVQLVESGGGLVQAGGRLRLSCAASGSTFLSNDMGWYRQAPGKERELVAAISQSGGNTYYADSVKGRFTISRDKAKNTVYLQMNSVKPEDTAVYYWAALDYWVQGTQVTVSS,low polyreactivity
8,QVQLVDSGGGLVQAGGSLRLSCAASGSTIVYYAKGWYRHAPGKERELVAVISDDGGTYYADSVKGRFTISRDNAKNTVYFQMNSLKPEDTAFYYCAKDYYGGAYYWYNDRSGDYWGQGTQVTVSS,low polyreactivity
9,QVQLVESGGGLVQAGGSLRLSCAASGRTFGIYAMGWYRQAPGKEREFVAAISWSGTSTHYADSVKGRFTISRDNAKNTVYLQMNSLKPEDTAVYYCNADSRTYRYYWSYGYWGQGTQVTVSS,high polyreactivity
10,QVQLVESGGGLVQAGGSLRLRCAASGITFKTYAMGWYRQAPGKERELVATINRGSRTNYADSVKGRFTISRDNAKNTVYLKMNSLKPEDTAVYYCAAHYTTFIPSPDGDYLGQGTQVTVSS,low polyreactivity
11,QVQLVESGGGLVQAGGSLRLSCPASGRTFNWNAMGWYRKAPGKERELVADISIRGGSTNYADSVKGRFTISRDNAKNTVYLQMNSLKPEDTAVYYCAAEYYDSGNDYWGQGTQVTVSS,low polyreactivity
12,QVQLVESGGGLVQAGGSLRLSCAASGRTFSYNTMGCYRQAPGKERELVARITWGGGSTNYADSVKGRFTISRDNAKNTVYLQMNSLKPEDTAVYYCAREYSSVYWVRHLFYYWGQGTQVTVSS,low polyreactivity
13,QVQLVESGGGLVQAGGSLRLSCAASGSTVWFYAMGWYRQAPGKERELVAVISNSGSTYYADSVKGRFTISRDNAKNTVYLQMNSLKPEDTAVYYCNKDGGGDSYWYDYWGQGTQVTVSS,low polyreactivity
14,QVQLVESGGGLVQAGGSLRLSCAASGSIFFYYAMGWYRQAPGKERELVAAITLSDGRTYYADSVKGRFTISRDNAKNTVYLQMNSLKPEDTAVYYCNADTGWYPTGARWHHYDYWGQGTQVTVSS,high polyreactivity
15,QVQLVESGGGLVQAGGSLRLSCAASGGIFAPYAMGWYRTAPGKERELVAAISSSDGSTYYADSVKGRFTISRDNAQNTVYLHMNSLKTVDTAVYYCAADYREDYGYWGEGTQVTVSS,low polyreactivity
16,QVQLVESGGGLDQAGGSLRLSCAASGITFGRNTMGWYRQAPGQERELVAAIDSGGNTYADSVKGRFTISRDNAKNTVYLQMNCLKPEDTAVYYCAVDGGEFSSYGYWGQGTQVTVSS,low polyreactivity
17,QVQLVESGGGLVQAGGSLRLSCAASGSTFQYYAMGWYRQAPGKERELVAAIRTGGSTNYADSVKGRFTISRDNAKNTFYLQMNSLKPEDTAVYYCAKRSLRSYRMNYWGQGTQVTVSS,high polyreactivity
18,QVQLVQSGGGLVQAGGSLRLSCAASGRIFNYNAMGWYRQAPGKERELVAAINRSGVSTHYADSVKGRFTISRDNAKNTVYLQMNSLKPEDTAVYYCARTVYGARSYDYWGQGTQVTVSS,low polyreactivity
19,QVQLVESGGGLVQAGGSLRLSCAASGFTFNRYAMGWYRPAPGKERELVAAISRSTATTYYADSVKGRFTISRDNAMNTVYLQMNSLKPEDTAVFYCNSPQRYWPPYGYWGQGTQVTVSS,high polyreactivity
20,QVQLVESGGGLVQAGGSLRLSCAASGSTFADNAMGWYRQAPGKERELVATITDGGSTNYADSVKGRFTISRDNAKNTVYLQMNSLKPEDTAVYYCNADTHARWTGVKGTYSDYDYWGQGTQVTVSS,low polyreactivity
21,QVLLQESGGGLVQAGGSLRLSCAASGNIFSAGGMGWYRQAPVNERELVAGIGTGTSTNYADSVKGRFTISRDNSKNTVYLQMNSMKPEDTAVYYCAAAYYSGLSHWYWGQGTQVTVSS,low polyreactivity
22,QVQLVESGGGLVQAGGSLRLSCAASGRIFRSNAKGWYRQAPRKERELVAAISGGGSTYYADSVKGRFTISRDNAKNTVYLQMNSLKPEDTAVYYCAAGRHLAYWSRDYYYWGQGTQVTVSS,high polyreactivity

row,Sequence,polyreactivity (PSR sort gate)
1,QVQHVESGGGLVQAGGSLRLSCAASGSIFGVYDMGWYRQAPGKERELVAAISWRGGSTYYADSVKGRFTISRDNAKNTVYLQMNSVKPEDTAVYYCNALGVAEYDWGQGTQVTVSS,low polyreactivity
2,QVQLVESGGGLVQAGGSLRLICAASGSTIAVYAIGWYRQAPGKERELVASISFSVVSTSYADSVKGRFTISRDNAKNTVYLQMNSLKPEDTAVYYCSTYYVRASYRYDYWGQGTQVTVSS,high polyreactivity
3,QVQIVESGGGLVQAGGSLRLRCAASGSISGRNGMGWYRQAPGKERELVAAISTSGASTYYADSVKGRFTISRDNSKNTVYLQMNSLKTEDTAGYYCARLWGRRGYGYWGQGTQVTVSS,high polyreactivity
4,QVQLVESGGGLVQAGGSLRLSCAASGSTFGVYAMVWYRQAPGKERELVAAINYSGRTYYADSVKGRFTISRDNAKNTVYLQMNSLKPEDTAVYYCAARIIVDDVGTKYYYWGQGTQVTVSS,high polyreactivity
5,QVQLLESGCGLVQAGGSLSIRCAATGFIFIFIAMGWSRQATGTERELVAAIDTSDDSTYYADSVMGRFTISRDNAKNTVYLQMNRLKTEDTAVYYCAAEELSNYEYWGQGTQVTVSS,low polyreactivity
6,QVQLVESGGGLVQAGGSLRLSCAASGSTFGTYAMGWSRQAPGKERELVAAITSGGSTDYADSVKGRFTISRDNAKNTVYLQMNSLKPEDTAVYYCNATWELLSYYYLFWGYDYWGQGTQVTVSS,low polyreactivity
7,QVQLVESGGGLVQAGGSLRLSCAASGGIFDDYAMGWYRQAPGKERELVAAISSSGGSTYYADSVKGRFTISRDNAKNTVYLQMNSLKPEDTAVYYCNADRRRRFGYWGQGTQVTVSS,high polyreactivity
8,QVQLEESGGGLVQAGGSLRLSCAASGSTFWYYAMGWYRPAPGKERELVAALSRSTGSTYYADSVKGRFTISRDNAKNTVYLQMNSLKPEDTAVYYCAADSYDWWQYTTSVHFDYYWGQGTQVTVSS,low polyreactivity
9,QVQLVESGGGLVQAGGSLRLSCAASGFTSGNYAMGWYRQAPGKERELVAAIDSDGSTYYADSVKGRFTISRDNAKNTVYLQMKSLKPEDTAVYYCNKDIKSATDSYHYEDDYWGQGTQVTVSS,low polyreactivity
10,QVQLVESGGGLVQAGGSLRLSCAASGRIFWHYAMGWYRQAPGKERELVAAIDYSGGRTRYADSVKGRFTISRDNAKNTVYLQMNSLKPEDTAVYYCAARRSSWGSFTGYYYWGQGTQVTVSS,high polyreactivity
11,QGQLVESGGGLVQAGGSLRLSCAASGFTFYKNTMGWYRQAPGKERELVAAISSSGSSTYYADSVKGRFTISRDNAKNTVYLQMISLKPEDTAVYYCAACSFAYHDDYWGQGTQVTVSS,high polyreactivity
12,QVQLVESGGGLFQAGGSLRLSCAASGRIFGYNSMGWDRQAPGKERELVAAIRRRGGTTYYADSVKGRFTISRDNAKNTVYLQMNSLKPEDNAVYYCAADLTFSYRQSAGRYSTYGYWGQGTQVTVSS,high polyreactivity
13,QVQLVESGGGLVQAGGSLRLSCAASGSTFRGYVMGWYRQAPGKERELVAAITYSGGSTYYADSVKGRFTISRDNAKNTVYLQLNSLKPEDTAVYYGADEIYDSYYEDDYWGQGTQVTVSS,high polyreactivity
14,QVQLVESGGGLVQAGGSLRLSCAASGSIFVPYAMGWYRQAPGKERELVAAISSGGGRTYYADSVKGRFTISRDNAKNTVYLQMNRLKPEDTAVYYCAARYYIGYGHRTYGYDYWGQGTQVTVSS,high polyreactivity
15,QVQLVESGGGLVQAGGSLRLSCAASGFIFYSNMGWYRQARGKEREFVAAITWRGGSTYADSVKGRFTISRDNAKNTVYLQMNSLKPEDTAVYYCARESYRAHTPGHPSGTRFGYWGQGTQVTVSS,high polyreactivity
16,QVQLVESGGGLVQAGGSLRLSCAASGSIIDRNAMGWYRQAPGKERELVAAITSGGSTYYADSVKGRFTISRDNAKHTDYLKLNSLKPEDTAVYYCNADTDPPVPLYYWGQGSQVTVSS,low polyreactivity
17,QVQLVESGGGLVQAGGSLRLSCAASGSIFVNYAMGWYRQAPGKERELVAAISTGGGRTFYADSVKGRFTISRDNAKNTVYLQMNSLKPEDTAVYYCNKLGRPEYDYWGQGTQVTVSS,high polyreactivity
18,QVQLVESGGGLVQAGGSLRLSCAASGLIFKYYAMGWYRPAPGKERELVAAITGRGGSTYYADSVKGRFTISRDNAMNTVYLQMNSLKPEDTAVYYCARRRTYSFNPVTYDWGQGTQVTVSS,high polyreactivity
19,QVQLVESGGGLVQAGGSLRLSCAASGFIFQSYAMGWYRQAPGKERELVAAISASGGRTYYADSVKGRFTISRDNAKNTVYLQMNSLKPEDNAVYYCNARPAGRGYNYWGQGTQVTVSS,high polyreactivity
20,QVQLVESGGGLVQAGGSLRLSCAASGRIFRKYTMGWYRQAPGKERELVAAITGTGGSTYYADSVKGRFTISRDNAKNTVYLQMNSLKPEDTAVYYCAAVARFRYSDMYYWGQGTQVTVSS,high polyreactivity
21,QVQLVESGGGLVQAGGSLRLSCAASGRTFGTNTMGWYRQAPGKVRELVATISSSSGSTYYADSVKGRFTISRDNAKNTVYFQMNSLKPEDTAVYYCAALCRWRYKRYDYWGQGTQVTVSS,high polyreactivity
